What all share (assay): cell-based or functional assay
Assay [1] concerns the target Cf2-PBD-VP64 (human) (UniProt P06401).
The target of assay [2] is ER-VP64 (mouse) (UniProt P19785).
For assay [3], the target named is ER-KRAB (mouse; human) (UniProt P19785).
Chain of ER-KRAB (mouse; human) (P19785 other isoform, or with tags, fused parts or gaps): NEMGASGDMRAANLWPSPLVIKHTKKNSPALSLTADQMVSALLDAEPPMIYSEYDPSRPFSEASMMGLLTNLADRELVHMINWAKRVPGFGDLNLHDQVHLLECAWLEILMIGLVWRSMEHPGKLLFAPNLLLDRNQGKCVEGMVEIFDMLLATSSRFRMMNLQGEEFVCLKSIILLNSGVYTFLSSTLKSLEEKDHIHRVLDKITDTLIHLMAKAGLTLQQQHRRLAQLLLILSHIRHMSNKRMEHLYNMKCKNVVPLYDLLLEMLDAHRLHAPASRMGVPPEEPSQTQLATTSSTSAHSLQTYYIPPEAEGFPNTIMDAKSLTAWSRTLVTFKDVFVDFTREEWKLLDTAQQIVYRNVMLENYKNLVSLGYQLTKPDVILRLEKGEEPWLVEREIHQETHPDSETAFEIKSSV

Chain of C7-PBD-VP64 (P06401 640-914): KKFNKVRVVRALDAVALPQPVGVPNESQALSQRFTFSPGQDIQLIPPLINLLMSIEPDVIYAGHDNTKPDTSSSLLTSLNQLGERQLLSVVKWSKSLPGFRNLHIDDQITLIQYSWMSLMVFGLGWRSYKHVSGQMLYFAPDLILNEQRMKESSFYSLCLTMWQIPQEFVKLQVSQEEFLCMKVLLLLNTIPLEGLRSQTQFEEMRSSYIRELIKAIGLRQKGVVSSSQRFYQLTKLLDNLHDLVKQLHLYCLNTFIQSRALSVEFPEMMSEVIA
Chain of Cf2-PBD-VP64 (human) (P06401 640-914): as above

“C7-PBD-VP64 (from UniProt P06401 640-914)” gave a luciferase assay, C7-Cf2 TATA reporter, ligand-dependent change in transcription in assay [1] of 2 fold.

In assay [2], E2C-ER (from UniProt P19785 282-599) gave a luciferase assay, erbB-2 promoter activity in HeLa cells, with and without Tamoxifen of 3 fold; a luciferase assay, tamoxifen-dependent activation of the erbB-2 promoter of 5.3 fold. The luciferase assay, tamoxifen-dependent repression of the erbB-2 promoter in assay [3] worked out at 2.9 fold.

These data come from patent publication US20030186841A1.
